Assay results published in publication PMC10871369 (bioRxiv, 2024).

Experiments:
B55 [1] = test: Binding of proteins to panel of purified B55 mutants; conditions: panel of B55 mutants covering patch 1-3 residues
B55 [2] = test: MS of B55 WT, V228A, I284A, S287A and D340A immunopurifications; format: binding; conditions: B55 S287A vs WT immunopurifications

B1: IER2: helix-loop-helix B55 binder (protein, UniProt Q9BTL4 1-223, looked up)
Immediate early response gene …: MEVQKEAQRIMTLSVWKMYHSRMQRGGLRLHRSLQLSLVMRSARELYLSAKVEALEPEVSLPAALPSDPRLHPPREAESTAETATPDGEHPFPEPMDTQEAPTAEETSACCAPRPAKVSRKRRSSSLSDGGDAGLVPSKKARLEEKEEEEGASSEVADRLQPPPAQAEGAFPNLARVLQRRFSGLLNCSPAAPPTAPPACEAKPACRPADSMLNVLVRAVVAF
B55 patch requirement for binding (B55 [1]): requirements from residues in patch 1 and 3
requirement of B55 S287 (patch 2) for binding (B55 [2]): does not

B2: CDCA4: helix-loop-helix B55 binder (SERTA domain) (protein, UniProt Q9BXL8 1-241, looked up)
Cell division …: MFARGLKRKCVGHEEDVEGALAGLKTVSSYSLQRQSLLDMSLVKLQLCHMLVEPNLCRSVLIANTVRQIQEEMTQDGTWRTVAPQAAERAPLDRLVSTEILCRAAWGQEGAHPAPGLGDGHTQGPVSDLCPVTSAQAPRHLQSSAWEMDGPRENRGSFHKSLDQIFETLETKNPSCMEELFSDVDSPYYDLDTVLTGMMGGARPGPCEGLEGLAPATPGPSSSCKSDLGELDHVVEILVET
B55 patch requirement for binding (B55 [1]): requirements from residues in patch 1 and 3
